Experimental data published in patent publication US20230272028.

Legend:
[1] = test system: CTSL1_2 9-mer FRET substrate Mca-ALFFSSPPSK-Dnp
[2] = test system: CTSL1_2 8-mer FRET substrate Mca-ALFFSSPPK-Dnp
[3] = test system: CTSL1_1 FRET substrate (ALFKSSFP)

Chain of Cathepsin L (CTSL1), recombinant human (chain, as listed by the source): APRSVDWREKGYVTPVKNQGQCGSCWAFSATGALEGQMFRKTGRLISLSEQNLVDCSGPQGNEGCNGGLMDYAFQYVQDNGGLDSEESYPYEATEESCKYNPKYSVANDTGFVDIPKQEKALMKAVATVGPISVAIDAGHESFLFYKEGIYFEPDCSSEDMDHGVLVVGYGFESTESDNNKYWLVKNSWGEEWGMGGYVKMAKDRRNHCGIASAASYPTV
Chain of ALU30-6 (chain, as listed by the source): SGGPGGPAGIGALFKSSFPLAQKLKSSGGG
Chain of ALU30-15 (chain, as listed by the source): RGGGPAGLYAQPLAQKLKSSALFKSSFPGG
Chain of ALU30-18 (chain, as listed by the source): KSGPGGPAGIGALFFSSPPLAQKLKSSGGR
Chain of ALU30-17 (chain, as listed by the source): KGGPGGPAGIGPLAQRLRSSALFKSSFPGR
Chain of ALU30-16 (chain, as listed by the source): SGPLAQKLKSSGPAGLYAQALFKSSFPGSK
Chain of ALU30-9 (chain, as listed by the source): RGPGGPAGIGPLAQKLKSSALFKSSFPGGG
Chain of ALU30-8 (chain, as listed by the source): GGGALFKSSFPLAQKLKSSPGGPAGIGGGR
Chain of ALU30-13 (chain, as listed by the source): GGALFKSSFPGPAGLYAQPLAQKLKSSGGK
Chain of ALU30-10 (chain, as listed by the source): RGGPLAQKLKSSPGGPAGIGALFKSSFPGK
Chain of ALU30-11 (chain, as listed by the source): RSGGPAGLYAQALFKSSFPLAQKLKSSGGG
Chain of ALU30-7 (chain, as listed by the source): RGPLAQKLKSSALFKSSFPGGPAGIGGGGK
Chain of ALU30-14 (chain, as listed by the source): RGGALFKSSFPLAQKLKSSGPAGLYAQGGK
Chain of ALU30-1 (chain, as listed by the source): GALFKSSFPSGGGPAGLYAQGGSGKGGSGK
Chain of ALU30-12 (chain, as listed by the source): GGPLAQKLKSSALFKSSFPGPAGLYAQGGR
Chain of ALU30-5 (chain, as listed by the source): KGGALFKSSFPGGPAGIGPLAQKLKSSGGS

Cathepsin L (CTSL1), recombinant human
30-mer peptide degradation by recombinant enzyme (MSP-MS) (ALU30-10): The most efficiently cleaved peptides were those containing the FAPa_1, CTSL1_1 and ADAM17_2 motifs, in multiple orders
30-mer peptide degradation by recombinant enzyme (MSP-MS) (ALU30-14): Peptides bearing the MMP14_1 motif with CTSL1_1 and ADAM17_2 were slightly lower efficiency
FRET substrate cleavage by recombinant enzyme [1]: This 9-mer FRET substrate bearing the CTSL1_2 motif produced comparable catalytic efficiency to the CTSL1_1 motif
FRET substrate cleavage by recombinant enzyme [2]: the new CTSL1_2 motif was not cleaved in the context of an 8-mer FRET peptide
30-mer peptide degradation by recombinant enzyme (MSP-MS) (ALU30-13): Peptides bearing the MMP14_1 motif with CTSL1_1 and ADAM17_2 were slightly lower efficiency
30-mer peptide degradation by recombinant enzyme (MSP-MS) (ALU30-7): The most efficiently cleaved peptides were those containing the FAPa_1, CTSL1_1 and ADAM17_2 motifs, in multiple orders
FRET substrate cleavage by recombinant enzyme [3]: CTSL1 cleaves the FRET substrate bearing the CTSL1_1 motif highly efficiently
30-mer peptide degradation by recombinant enzyme (MSP-MS) (ALU30-8): The most efficiently cleaved peptides were those containing the FAPa_1, CTSL1_1 and ADAM17_2 motifs, in multiple orders
30-mer peptide degradation by recombinant enzyme (MSP-MS) (ALU30-5): The most efficiently cleaved peptides were those containing the FAPa_1, CTSL1_1 and ADAM17_2 motifs, in multiple orders
30-mer peptide cleavage (mass spectrometry) (ALU30-18): Both peptides showed rapid disappearance of substrate (squares) and product formation from cleavage at the target scissile bond
30-mer peptide degradation by recombinant enzyme (MSP-MS) (ALU30-18): CTSL1 treatment of the 30-mer peptide library produced cleavages in all peptides bearing a CTSL1_1 or CTSL1_2 motif
30-mer peptide degradation by recombinant enzyme (MSP-MS) (ALU30-17): CTSL1 treatment of the 30-mer peptide library produced cleavages in all peptides bearing a CTSL1_1 or CTSL1_2 motif
30-mer peptide degradation by recombinant enzyme (MSP-MS) (ALU30-1): CTSL1 treatment of the 30-mer peptide library produced cleavages in all peptides bearing a CTSL1_1 or CTSL1_2 motif
30-mer peptide degradation by recombinant enzyme (MSP-MS) (ALU30-9): The most efficiently cleaved peptides were those containing the FAPa_1, CTSL1_1 and ADAM17_2 motifs, in multiple orders
30-mer peptide degradation by recombinant enzyme (MSP-MS) (ALU30-16): Peptides bearing the MMP14_1 motif with CTSL1_1 and ADAM17_2 were slightly lower efficiency
30-mer peptide degradation by recombinant enzyme (MSP-MS) (ALU30-12): Peptides bearing the MMP14_1 motif with CTSL1_1 and ADAM17_2 were slightly lower efficiency
30-mer peptide degradation by recombinant enzyme (MSP-MS) (ALU30-15): Peptides bearing the MMP14_1 motif with CTSL1_1 and ADAM17_2 were slightly lower efficiency
comparison of cleavage efficiencies across the 30-mer library (ALU30-15): it had slightly higher hepsin susceptibility and lower CTSL1 activity
30-mer peptide degradation by recombinant enzyme (MSP-MS) (ALU30-11): Peptides bearing the MMP14_1 motif with CTSL1_1 and ADAM17_2 were slightly lower efficiency
30-mer peptide cleavage (mass spectrometry) (ALU30-6): Both peptides showed rapid disappearance of substrate (squares) and product formation from cleavage at the target scissile bond
30-mer peptide degradation by recombinant enzyme (MSP-MS) (ALU30-6): The most efficiently cleaved peptides were those containing the FAPa_1, CTSL1_1 and ADAM17_2 motifs, in multiple orders
